Measurements published in patent US20170022258A1, “PEPTIDES FOR USE IN THE TREATMENT OF IL-1 RELATED DISEASES AND CONDITIONS” (C4M PHARMACEUTICALS PTY LTD., priority 2011, published 2017).
Non-standard residues stand in square brackets, D forms with d. No end group written: not given here.

T1: IL-1 receptor (IL-1R) expressed on human monocytes (human, UniProt P14778 18-569)
T1 sequence (looked up): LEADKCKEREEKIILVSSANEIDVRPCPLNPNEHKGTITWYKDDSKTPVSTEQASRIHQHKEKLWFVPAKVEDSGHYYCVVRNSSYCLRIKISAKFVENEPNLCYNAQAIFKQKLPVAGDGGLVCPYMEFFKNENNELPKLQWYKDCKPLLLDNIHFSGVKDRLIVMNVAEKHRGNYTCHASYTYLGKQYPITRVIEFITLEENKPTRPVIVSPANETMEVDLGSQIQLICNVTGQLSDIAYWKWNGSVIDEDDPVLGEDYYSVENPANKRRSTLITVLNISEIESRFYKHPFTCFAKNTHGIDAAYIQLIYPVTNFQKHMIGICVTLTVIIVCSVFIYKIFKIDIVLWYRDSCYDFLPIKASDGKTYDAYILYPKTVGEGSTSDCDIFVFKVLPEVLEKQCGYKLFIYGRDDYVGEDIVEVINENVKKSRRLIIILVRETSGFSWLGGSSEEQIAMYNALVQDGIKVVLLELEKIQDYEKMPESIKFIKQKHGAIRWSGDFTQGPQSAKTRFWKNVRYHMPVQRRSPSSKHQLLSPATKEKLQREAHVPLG


Experiments:
[1] = molecular target: T1, IL-1 receptor (IL-1R) expressed on …; assay: cell-based or functional assay
[2] = molecular target: T1, IL-1 receptor (IL-1R) expressed on …; assay: radioligand competition, 40 pM 125I-IL-1α on confluent human monocytes
Method: Radioligand competition binding assays were performed in 96-well plates containing confluent human monocytes, which express the IL-1 receptor. Wells were washed three times with binding buffer, and binding buffer was placed in each well. Peptides were resuspended in dimethyl sulfoxide at 20 mM and diluted in binding buffer to the desired starting concentration. Using a Beckman robotic system, five 3-fold dilutions were prepared, and peptide solution was transferred to duplicate receptor-containing wells. To each well, radioactive ¹²⁵Iodine-labeled IL-Ia (Amersham) was added to a final concentration of 40 pM, and the plates were placed on a shaking platform at 4° C. for 2 hr. Plates were washed with PBS using a plate washer, and bound ¹²⁵I-labeled IL-la was eluted for 10 min with 0.1 M NaOH and counted in a gamma counter. IC₅₀ values were determined by fitting the data to a two-parameter logistic equation. In all cases, nonspecific binding was determined by the addition of 3 μM of recombinant IL-Ia.

[3] = molecular target: IL-1 receptor (IL-1R) expressed on human monocytes (human) (UniProt P14778); assay: cell-based or functional assay
[4] = molecular target: IL-1 receptor (IL-1R) expressed on human monocytes (human) (UniProt P14778); assay: radioligand competition, 40 pM 125I-IL-1α on confluent human monocytes

| Binder | IC50, in vitro inhibition of IL-1 stimulation of IL-8 in human skin fibroblasts (rIL-1β 50 pg/ml, IL-8 ELISA) [1] | IC50 [2] | IC50, in vitro inhibition of IL-1 stimulation of IL-8 in human skin fibroblasts (rIL-1β 50 pg/ml, IL-8 ELISA) [3] | IC50 [4] |
| --- | --- | --- | --- | --- |
| Ac-FTWEESNAYYWQPYALPL (also called peptide 15) [peptide of SEQ ID NO: 15 (Ac-FTWEESNAYYWQPYALPL)] | 16 nM | 20 nM | – | – |
| Ac-FEWTPGYWQPYALPL (also called peptide 19) [peptide of SEQ ID NO: 19 (Ac FEWTPGYWQPYALPL)] | 10 nM | 7.1 nM | – | – |

Results, then the binder that gave them:

| IC50, in vitro inhibition of IL-1 stimulation of IL-8 in human skin fibroblasts (rIL-1β 50 pg/ml, IL-8 ELISA) [1] | IC50 [2] | IC50, in vitro inhibition of IL-1 stimulation of IL-8 in human skin fibroblasts (rIL-1β 50 pg/ml, IL-8 ELISA) [3] | IC50 [4] | Binder |
| --- | --- | --- | --- | --- |
| 76 nM | 7.6 nM | – | – | Ac-TANVSSFEWTPGYWQPYALPL (also called peptide 17) [peptide of SEQ ID NO: 17 (Ac-TANVSSFEWTPGYWQPYALPL)] |
| – | – | 730 nM | 240 nM | Ac-[dL][dP][dL][dA][dY][dP][dQ][dW][dY][dR][dE]G[dS][dQ][dR][dW][dR][dD][dY]G[dD] (not fully specified (residues 12, 20); printed as Ac-LPLAYPQWYREGSQRWRDYGD) [peptide of SEQ ID NO: 21 (Ac-…, D-amino acids)] |
